Source: paper PMC9179584 (2022)

B1: SMAD3 wild type, overexpressed from pCMV5b-SMAD3 [not stated] / SMAD Anchor for Receptor Activation (SARA) [human (endogenous in HT-1080)] (parent complex)
chain 1: MSSILPFTPPIVKRLLGWKKGEQNGQEEKWCEKAVKSLVKKLKKTGQLDELEKAITTQNVNTKCITIPRSLDGRLQVSHRKGLPHVIYCRLWRWPDLHSHHELRAMELCEFAFNMKKDEVCVNPYHYQRVETPVLPPVLVPRHTEIPAEFPPLDDYSHSIPENTNFPAGIEPQSNIPETPPPGYLSEDGETSDHQMNHSMDAGSPNLSPNPMSPAHNNLDLQPVTYCEPAFWCSISYYELNQRVGETFHASQPSMTVDGFTDPSNSERFCLGLLSNVNRNAAVELTRRHIGRGVRLYYIGGEVFAECLSDSAIFVQSPNCNQRYGWHPATVCKIPPGCNLKIFNNQEFAALLAQSVNQGFEAVYQLTRMCTIRMSFVKGWGAEYRRQTVTSTPCWIELHLNGPLQWLDKVLTQMGSPSIRCSSVS
chain 2: MENYFQAEAYNLDKVLDEFEQNEDETVSSTLLDTKWNKILDPPSHRLSFNPTLASVNESAVSNESQPQLKVFSLAHSAPLTTEEEDHCANGQDCNLNPEIATMWIDENAVAEDQLIKRNYSWDDQCSAVEVGEKKCGNLACLPDEKNVLVVAVMHNCDKRTLQNDLQDCNNYNSQSLMDAFSCSLDNENRQTDQFSFSINESTEKDMNSEKQMDPLNRPKTEGRSVNHLCPTSSDSLASVCSPSQLKDDGSIGRDPSMSAITSLTVDSVISSQGTDGCPAVKKQENYIPDEDLTGKISSPRTDLGSPNSFSHMSEGILMKKEPAEESTTEESLRSGLPLLLKPDMPNGSGRNNDCERCSDCLVPNEVRADENEGYEHEETLGTTEFLNMTEHFSESQDMTNWKLTKLNEMNDSQVNEEKEKFLQISQPEDTNGDSGGQCVGLADAGLDLKGTCISESEECDFSTVIDTPAANYLSNGCDSYGMQDPGVSFVPKTLPSKEDSVTEEKEIEESKSECYSNIYEQRGNEATEGSGLLLNSTGDLMKKNYLHNFCSQVPSVLGQSSPKVVASLPSISVPFGGARPKQPSNLKLQIPKPLSDHLQNDFPANSGNNTKNKNDILGKAKLGENSATNVCSPSLGNISNVDTNGEHLESYEAEISTRPCLALAPDSPDNDLRAGQFGISARKPFTTLGEVAPVWVPDSQAPNCMKCEARFTFTKRRHHCRACGKVFCASCCSLKCKLLYMDRKEARVCVICHSVLMNAQAWENMMSASSQSPNPNNPAEYCSTIPPLQQAQASGALSSPPPTVMVPVGVLKHPGAEVAQPREQRRVWFADGILPNGEVADAAKLTMNGTSSAGTLAVSHDPVKPVTTSPLPAETDICLFSGSITQVGSPVGSAMNLIPEDGLPPILISTGVKGDYAVEEKPSQISVMQQLEDGGPDPLVFVLNANLLSMVKIVNYVNRKCWCFTTKGMHAVGQSEIVILLQCLPDEKCLPKDIFNHFVQLYRDALAGNVVSNLGHSFFSQSFLGSKEHGGFLYVTSTYQSLQDLVLPTPPYLFGILIQKWETPWAKVFPIRLMLRLGAEYRLYPCPLFSVRFRKPLFGETGHTIMNLLADFRNYQYTLPVVQGLVVDMEVRKTSIKIPSNRYNEMMKAMNKSNEHVLAGGACFNEKADSHLVCVQNDDGNYQTQAISIHNQPRKVTGASFFVFSGALKSSSGYLAKSSIVEDGVMVQITAENMDSLRQALREMKDFTITCGKADAEEPQEHIHIQWVDDDKNVSKGVVSPIDGKSMETITNVKIFHGSEYKANGKVIRWTEVFFLENDDQHNCLSDPADHSRLTEHVAKAFCLALCPHLKLLKEDGMTKLGLRVTLDSDQVGYQAGSNGQPLPSQYMNDLDSALVPVIHGGACQLSEGPVVMELIFYILENIV
B2: SMAD2 wild type, overexpressed from pCMV5b-SMAD2 [not stated] / SMAD Anchor for Receptor Activation (SARA) [human (endogenous in HT-1080)] (parent complex)
chain 1: MSSILPFTPPVVKRLLGWKKSAGGSGGAGGGEQNGQEEKWCEKAVKSLVKKLKKTGRLDELEKAITTQNCNTKCVTIPSTCSEIWGLSTPNTIDQWDTTGLYSFSEQTRSLDGRLQVSHRKGLPHVIYCRLWRWPDLHSHHELKAIENCEYAFNLKKDEVCVNPYHYQRVETPVLPPVLVPRHTEILTELPPLDDYTHSIPENTNFPAGIEPQSNYIPETPPPGYISEDGETSDQQLNQSMDTGSPAELSPTTLSPVNHSLDLQPVTYSEPAFWCSIAYYELNQRVGETFHASQPSLTVDGFTDPSNSERFCLGLLSNVNRNATVEMTRRHIGRGVRLYYIGGEVFAECLSDSAIFVQSPNCNQRYGWHPATVCKIPPGCNLKIFNNQEFAALLAQSVNQGFEAVYQLTRMCTIRMSFVKGWGAEYRRQTVTSTPCWIELHLNGPLQWLDKVLTQMGSPSVRCSSMS
chain 2: B1 chain 2

Variants of: B1
Assay: co-immunoprecipitation (IP: SMAD3, blot SARA) with densitometry; HT-1080 cells transiently transfected; ratio printed relative to the pCMV5b empty-vector lane = 1; parent: 0.6
chain 1 N339S gave a screen value of 0.2.

Variants of: B2
Assay: co-immunoprecipitation (IP: SMAD2, blot SARA) with densitometry; HT-1080 cells transiently transfected; ratio printed relative to the pCMV5b empty-vector lane = 1; parent: 1.2
Work on chain 1 N381S yielded a screen value of 0.5.
